Test results published in IntAct's records for PubMed 24879834.

B1: TBC1 domain family member 1 (Homo sapiens), Q86TI0 (parent)
chain: MEPITFTARKHLLSNEVSVDFGLQLVGSLPVHSLTTMPMLPWVVAEVRRLSRQSTRKEPVTKQVRLCVSPSGLRCEPEPGRSQQWDPLIYSSIFECKPQRVHKLIHNSHDPSYFACLIKEDAVHRQSICYVFKADDQTKVPEIISSIRQAGKIARQEELHCPSEFDDTFSKKFEVLFCGRVTVAHKKAPPALIDECIEKFNHVSGSRGSESPRPNPPHAAPTGSQEPVRRPMRKSFSQPGLRSLAFRKELQDGGLRSSGFFSSFEESDIENHLISGHNIVQPTDIEENRTMLFTIGQSEVYLISPDTKKIALEKNFKEISFCSQGIRHVDHFGFICRESSGGGGFHFVCYVFQCTNEALVDEIMMTLKQAFTVAAVQQTAKAPAQLCEGCPLQSLHKLCERIEGMNSSKTKLELQKHLTTLTNQEQATIFEEVQKLRPRNEQRENELIISFLRCLYEEKQKEHIHIGEMKQTSQMAAENIGSELPPSATRFRLDMLKNKAKRSLTESLESILSRGNKARGLQEHSISVDLDSSLSSTLSNTSKEPSVCEKEALPISESSFKLLGSSEDLSSDSESHLPEEPAPLSPQQAFRRRANTLSHFPIECQEPPQPARGSPGVSQRKLMRYHSVSTETPHERKDFESKANHLGDSGGTPVKTRRHSWRQQIFLRVATPQKACDSSSRYEDYSELGELPPRSPLEPVCEDGPFGPPPEEKKRTSRELRELWQKAILQQILLLRMEKENQKLQASENDLLNKRLKLDYEEITPCLKEVTTVWEKMLSTPGRSKIKFDMEKMHSAVGQGVPRHHRGEIWKFLAEQFHLKHQFPSKQQPKDVPYKELLKQLTSQQHAILIDLGRTFPTHPYFSAQLGAGQLSLYNILKAYSLLDQEVGYCQGLSFVAGILLLHMSEEEAFKMLKFLMFDMGLRKQYRPDMIILQIQMYQLSRLLHDYHRDLYNHLEEHEIGPSLYAAPWFLTMFASQFPLGFVARVFDMIFLQGTEVIFKVALSLLGSHKPLILQHENLETIVDFIKSTLPNLGLVQMEKTINQVFEMDIAKQLQAYEVEYHVLQEELIDSSPLSDNQRMDKLEKTNSSLRKQNLDLLEQLQVANGRIQSLEATIEKLLSSESKLKQAMLTLELERSALLQTVEELRRRSAEPSDREPECTQPEPTGD
partner: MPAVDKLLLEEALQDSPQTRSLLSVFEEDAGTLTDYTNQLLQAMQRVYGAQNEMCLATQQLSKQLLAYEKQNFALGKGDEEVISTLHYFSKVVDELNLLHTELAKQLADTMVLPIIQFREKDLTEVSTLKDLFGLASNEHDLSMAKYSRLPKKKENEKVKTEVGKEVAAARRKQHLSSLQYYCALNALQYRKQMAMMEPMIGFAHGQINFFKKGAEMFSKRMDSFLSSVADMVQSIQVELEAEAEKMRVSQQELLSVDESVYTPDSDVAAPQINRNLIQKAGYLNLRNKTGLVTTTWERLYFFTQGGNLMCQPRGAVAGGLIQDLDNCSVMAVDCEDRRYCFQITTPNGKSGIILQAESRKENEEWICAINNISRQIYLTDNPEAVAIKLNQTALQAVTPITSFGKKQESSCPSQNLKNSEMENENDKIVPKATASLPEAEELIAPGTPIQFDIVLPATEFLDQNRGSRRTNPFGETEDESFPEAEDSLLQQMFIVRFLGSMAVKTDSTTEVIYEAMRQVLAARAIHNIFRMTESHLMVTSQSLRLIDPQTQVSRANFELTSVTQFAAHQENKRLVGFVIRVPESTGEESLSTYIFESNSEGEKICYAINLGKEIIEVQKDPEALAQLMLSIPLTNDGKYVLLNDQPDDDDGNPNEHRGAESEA

Variants of: B1
Conditions: with dp13b_human APPL2, Q8NEU8
For S235A, the “effect of a mutation on the interaction” value was “disrupting interaction strength”.
With S237A the “effect of a mutation on the interaction” value was “with no effect”.
